± gives the uncertainty stated by the source.
Test: self-splicing fitness, log relative to wild type (ln ratio); higher = more splicing; Tetrahymena group I intron in knt gene, E. coli kanamycin selection, DiMSum; sequences stand for … in CUCUCU…GGAGGGAAAAGUUAUCAGGCAUGCACCUGGUAGCUAGUCUUUAAACCAAUAGAUUGCAUCGGUUUAAAAGGCAAGACCGUCAAAUUGCGGGAAAGGGGUCAACAGCCGUUCAGUACCAAGUCUCAGGGGAAACUUUGAGAUGGCCUUGCAAAGGGUAUGGUAAUAAGCUGACGGACAUGGUCCUAACCACGCAGCCAAGUCCUAAGUCAACAGAUCUUCUGUUGAUAUGGAUGCAGUUCACAGACUAAAUGUCGGUCGGGGAAGAUGUAUUCUUCUCAUAAGAUAUAGUCGGACCUCUCCUUAAUGGGAGCUAGCGGAUGAAGUGAUGCAACACUGGAGCCGCUGGGAACUAAUUUGUAUGCGAAAGUAUAUUGAUUAGUUUUGGAGUACUCGUGGUCG
Procedure, shortened: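 The eight P1ex-region nucleotides of an intron in the knt kanamycin-resistance gene on pET-22b(+) were all randomised and the library put into E. coli BL21(DE3). Six replicate transformations were grown overnight at 37°C or 30°C on LB agar with or without 25 μg/mL kanamycin, together with 100 μg/mL carbenicillin, 50 μM IPTG and 0.2% rhamnose. Colonies were pooled and amplicon-sequenced on an Illumina HiSeq 2500. Fitness from DiMSum is the error-weighted combination of wild-type-normalised replicate fold changes, kanamycin over none.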

| Sequence | self-splicing fitness (ln) (30 °C) | self-splicing fitness (ln) (37 °C) |
| --- | --- | --- |
| AAAAAGCAAUAUUACGAAAA | -2.26 ± 0.17 | -0.664 ± 0.14 |
| AAAAAGCAAUAUUACGAAGU | -2.08 ± 0.13 | -0.998 ± 0.15 |
| AAAAAGCAAUAUUACGACGG | -1.76 ± 0.17 | -1.12 ± 0.21 |
| AAAAAGCAAUAUUACGACUA | -0.0366 ± 0.1 | 0.028 ± 0.1 |
| AAAAAGCAAUAUUACGAGUA | -1.68 ± 0.12 | -0.884 ± 0.11 |
| AAAAAGCAAUAUUACGCACA | -0.661 ± 0.067 | -0.183 ± 0.087 |
| AAAAAGCAAUAUUACGCAGA | -2.35 ± 0.15 | -1.86 ± 0.14 |
| AAAAAGCAAUAUUACGCAGG | -2.42 ± 0.15 | -1.03 ± 0.14 |
| AAAAAGCAAUAUUACGCAGU | -1.99 ± 0.15 | -2.19 ± 0.2 |
| AAAAAGCAAUAUUACGCCCC | -0.356 ± 0.25 | 0.308 ± 0.34 |
| AAAAAGCAAUAUUACGCCCG | -0.481 ± 0.16 | 0.243 ± 0.23 |
| AAAAAGCAAUAUUACGCGAA | -2.07 ± 0.12 | -1.19 ± 0.16 |
| AAAAAGCAAUAUUACGCUUA | -1.36 ± 0.13 | -0.916 ± 0.12 |
| AAAAAGCAAUAUUACGGAAC | -2.97 ± 0.16 | -1.77 ± 0.2 |
| AAAAAGCAAUAUUACGGACG | -0.378 ± 0.064 | 0.25 ± 0.084 |
| AAAAAGCAAUAUUACGGCGG | -1.18 ± 0.059 | -0.131 ± 0.077 |
| AAAAAGCAAUAUUACGGGCG | -0.625 ± 0.075 | -0.721 ± 0.091 |
| AAAAAGCAAUAUUACGGUCC | -0.603 ± 0.084 | 0.0637 ± 0.11 |
| AAAAAGCAAUAUUACGUCCA | -0.18 ± 0.076 | 0.113 ± 0.11 |
| AAAAAGCAAUAUUACGUCUC | -1.51 ± 0.078 | -0.62 ± 0.093 |
| AAAAAGCAAUAUUACGUGAG | -0.91 ± 0.056 | -0.523 ± 0.092 |
| AAAAAGCAAUAUUACGUGGG | -3.51 ± 0.13 | -2.03 ± 0.13 |
| AAAAAGCAAUAUUACGUUAC | -2.57 ± 0.14 | -1.91 ± 0.15 |
| AAAAAGCAAUAUUACGUUUC | -2.04 ± 0.13 | -3.26 ± 0.28 |
| AAAAAGCAAUAUUACGUUUU | -2.42 ± 0.13 | -2.39 ± 0.14 |
| AAACAGCAAUAUUACGAACG | -2.5 ± 0.12 | -0.625 ± 0.12 |

| Sequence | self-splicing fitness (ln) (30 °C) | self-splicing fitness (ln) (37 °C) |
| --- | --- | --- |
| AAACAGCAAUAUUACGACAU | -0.514 ± 0.011 | -0.112 ± 0.032 |
| AAACAGCAAUAUUACGAGGC | -3.32 ± 0.17 | -3.12 ± 0.28 |
| AAACAGCAAUAUUACGCAAA | -2.87 ± 0.12 | -1.75 ± 0.1 |
| AAACAGCAAUAUUACGCGAA | -1.95 ± 0.096 | -1.43 ± 0.11 |
| AAACAGCAAUAUUACGCGAC | -2.77 ± 0.21 | -1.68 ± 0.14 |
| AAACAGCAAUAUUACGCGAU | -2.98 ± 0.16 | -2.42 ± 0.17 |
| AAACAGCAAUAUUACGCGUU | -3.11 ± 0.11 | -1.1 ± 0.1 |
| AAACAGCAAUAUUACGCUCU | -0.653 ± 0.085 | 0.413 ± 0.086 |
| AAACAGCAAUAUUACGGAGG | -4.68 ± 0.36 | -1.86 ± 0.2 |
| AAACAGCAAUAUUACGGAUC | -2.82 ± 0.11 | -1.73 ± 0.11 |
| AAACAGCAAUAUUACGGAUG | -3.43 ± 0.16 | -3 ± 0.2 |
| AAACAGCAAUAUUACGGAUU | -1.67 ± 0.068 | -0.362 ± 0.079 |
| AAACAGCAAUAUUACGGCUA | -0.275 ± 0.064 | -0.0695 ± 0.076 |
| AAACAGCAAUAUUACGUCCU | -0.281 ± 0.07 | 0.347 ± 0.094 |
| AAACAGCAAUAUUACGUUAA | -2.66 ± 0.11 | -0.816 ± 0.092 |
| AAACAGCAAUAUUACGUUAU | -2.23 ± 0.072 | -1.22 ± 0.085 |
| AAACAGCAAUAUUACGUUUU | -3.81 ± 0.11 | -3 ± 0.15 |
| AAAGAGCAAUAUUACGAACA | -2.07 ± 0.35 | -2.02 ± 0.4 |
| AAAGAGCAAUAUUACGACAG | -3.56 ± 0.3 | -2.86 ± 0.36 |
| AAAGAGCAAUAUUACGACCG | -3.83 ± 0.18 | -2.5 ± 0.19 |
| AAAGAGCAAUAUUACGACCU | -1.39 ± 0.15 | -0.748 ± 0.16 |
| AAAGAGCAAUAUUACGACUA | -2.38 ± 0.3 | -1.12 ± 0.25 |
| AAAGAGCAAUAUUACGAUGG | -3.63 ± 0.33 | -1.89 ± 0.25 |
| AAAGAGCAAUAUUACGAUGU | -2.08 ± 0.17 | -1.37 ± 0.23 |
| AAAGAGCAAUAUUACGAUUU | -0.695 ± 0.14 | 0.468 ± 0.13 |
| AAAGAGCAAUAUUACGCCGG | -3.8 ± 0.42 | -2.53 ± 0.24 |

| Sequence | self-splicing fitness (ln) (30 °C) | self-splicing fitness (ln) (37 °C) |
| --- | --- | --- |
| AAAGAGCAAUAUUACGCCUG | -2.57 ± 0.28 | -1.76 ± 0.33 |
| AAAGAGCAAUAUUACGCGAU | -2.63 ± 0.35 | -2.04 ± 0.34 |
| AAAGAGCAAUAUUACGCGGA | -3.29 ± 0.33 | -2.33 ± 0.22 |
| AAAGAGCAAUAUUACGCUCC | -2.57 ± 0.3 | -2 ± 0.41 |
| AAAGAGCAAUAUUACGGAAA | -2.38 ± 0.26 | -2.53 ± 0.41 |
| AAAGAGCAAUAUUACGGACA | -2.68 ± 0.3 | -1.81 ± 0.32 |
| AAAGAGCAAUAUUACGGCUA | -1.28 ± 0.11 | -1.13 ± 0.13 |
| AAAGAGCAAUAUUACGGGUA | -2.81 ± 0.26 | -1.88 ± 0.27 |
| AAAGAGCAAUAUUACGGGUG | -3.95 ± 0.21 | -1.88 ± 0.19 |
| AAAGAGCAAUAUUACGGGUU | -3.43 ± 0.16 | -2.78 ± 0.21 |
| AAAGAGCAAUAUUACGGUAA | -1.74 ± 0.3 | -1.67 ± 0.26 |
| AAAGAGCAAUAUUACGGUUU | -2.16 ± 0.11 | -1.06 ± 0.12 |
| AAAGAGCAAUAUUACGUAAC | -3.77 ± 0.31 | -2.88 ± 0.43 |
| AAAGAGCAAUAUUACGUAUG | -3.72 ± 0.25 | -2.06 ± 0.17 |
| AAAUAGCAAUAUUACGAAGG | -2.61 ± 0.21 | -1.45 ± 0.27 |
| AAAUAGCAAUAUUACGACAC | -1 ± 0.11 | 0.319 ± 0.12 |
| AAAUAGCAAUAUUACGACCA | -0.537 ± 0.12 | -0.525 ± 0.17 |
| AAAUAGCAAUAUUACGACCU | -0.0682 ± 0.092 | 0.265 ± 0.13 |
| AAAUAGCAAUAUUACGACGA | -0.696 ± 0.099 | -0.228 ± 0.14 |
| AAAUAGCAAUAUUACGACUA | -0.367 ± 0.12 | 0.06 ± 0.13 |
| AAAUAGCAAUAUUACGAUGU | -1.21 ± 0.078 | -0.875 ± 0.089 |
| AAAUAGCAAUAUUACGCAUU | -2.89 ± 0.14 | -1.52 ± 0.12 |
| AAAUAGCAAUAUUACGCCCC | -1.71 ± 0.32 | 0.0438 ± 0.38 |
| AAAUAGCAAUAUUACGCGGC |  | -2.2 ± 0.42 |

— the supplement of paper PMC7877785
